Biological target: T1, ApaLI restriction endonuclease (apaLIR product, 375 aa) (Acetobacter pasteurianus) (UniProt O52703)
T1 sequence: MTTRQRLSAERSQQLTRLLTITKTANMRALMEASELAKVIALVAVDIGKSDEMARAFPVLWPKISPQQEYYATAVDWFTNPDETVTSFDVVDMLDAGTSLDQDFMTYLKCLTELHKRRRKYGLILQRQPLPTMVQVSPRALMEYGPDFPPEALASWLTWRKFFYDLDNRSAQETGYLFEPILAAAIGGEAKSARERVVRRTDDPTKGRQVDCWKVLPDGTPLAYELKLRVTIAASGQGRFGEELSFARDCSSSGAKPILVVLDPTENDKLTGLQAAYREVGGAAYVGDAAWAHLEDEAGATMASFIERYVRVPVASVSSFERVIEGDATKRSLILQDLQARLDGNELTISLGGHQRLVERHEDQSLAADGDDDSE
Test: cleavage_in_vitro
Settings: diluted cell extract, 1 ug lambda DNA, 1 h, 37 C

lambda DNA
activity (units/g wet cells): 1e+06
